Target: linear tetra-Ub (UniProt P0CG47 1-76; P0CG47 1-76; P0CG47 1-76; P0CG47 1-76)

B1: GFP-UBAN (EGFP fused to the CoZi domain of murine NEMO, amino acids 183-339) (domain or fragment, UniProt O88522 183-339, looked up)
chain: QLESEREVLQQQHSVQVDQLRMQNQSVEAALRMERQAASEEKRKLAQLQAAYHQLFQDYDSHIKSSKGMQLEDLRQQLQQAEEALVAKQELIDKLKEEAEQHKIVMETVPVLKAQADIYKADFQAERHAREKLVEKKEYLQEQLEQLQREFNKLKVG
For B1, which Kd is on record?
Its Kd is 4.7 µM.
